Results published in patent US20090325873A1, “HUMAN GLP-1 MIMETIBODIES, COMPOSITIONS, METHODS AND USES” (CENTOCOR, INC., priority 2006, published 2009).

Biological target: GLP-1R on Rinm cells
Experiment: cell-based or functional assay

“GLP-1 peptide (from UniProt P01275 98-127)” was tested, and the cAMP activity in Rinm cells, EC50 was 0.4 nM.
